Assay results taken from patent publication US20240181022A1, “AMURINS LYSINS, AND LYSIN-ANTIMICROBIAL PEPTIDE (AMP) CONSTRUCTS ACTIVE AGAINST GRAM-NEGATIVE BACTERIA” (priority 2021, published 2024).
In brackets after ≈: the same amount, converted by molar mass.

Assays:
E. cloacae = assay: Checkerboard synergy assay (FICI) against E. cloacae; type: cell-based, Enterobacter cloacae; details: E. cloacae ATCC 13047
Protocol: Any known method to assess MIC may be used.
Checkerboards are constructed by first preparing columns of e.g., a 96-well polypropylene microtiter plate, wherein each well has the same amount of antibiotic diluted 2-fold along the horizontal axis. […] Bacteria are added to the drug combinations at concentrations of 1×10^5 […] in CAA, for example, with or without human serum or pulmonary surfactant. […] Summation fractional inhibitory concentrations (ΣFICs) are calculated for each drug and the minimum ΣFIC value (ΣFICmin) is used to determine the effect of the Chp peptide/antibiotic combination.
(§1) GN370 was further tested in combination with up to seven additional antibiotics (in addition to meropenem) against a variety of bacterial strains, including P. aeruginosa, A. baumannii, E. coli, E. cloacae, and K. pneumoniae. GN370 and the subject antibiotics were tested in a checkerboard assay format, and FICI values were determined, wherein ≤0.5 indicates synergy, >0.5-≤1 indicates additive; and >1 indicates indifferent.

E. coli [1] = assay: Checkerboard synergy assay (FICI) against E. coli; type: cell-based, Escherichia coli; details: E. coli ATCC 25922
Description: In some embodiments, the Chp peptides disclosed herein or active fragments thereof reduce the minimum inhibitory concentration (MIC) of an antibiotic in the presence and/or absence of human serum, pulmonary surfactant, and/or sputum, including human sputum and human sputum from a cystic fibrosis patient. Any known method to assess MIC may be used. In some embodiments, a checkerboard assay is used to determine the effect of a Chp peptide or active fragment thereof on antibiotic concentration. The checkerboard assay is based on a modification of the CLSI method for MIC determination by broth microdilution (See Clinical and Laboratory Standards Institute (CLSI), CLSI. 2015. Methods for Dilution Antimicrobial Susceptibility Tests for Bacteria That Grow Aerobically; Approved Standard-10th Edition. Clinical and Laboratory Standards Institute, Wayne, PA, which is herein incorporated by reference in its entirety and Ceri et al. 1999. J. Clin. Microbiol. 37: 1771-1776, which is also herein incorporated by reference in its entirety).
Checkerboards are constructed by first preparing columns of e.g., a 96-well polypropylene microtiter plate, wherein each well has the same amount of antibiotic diluted 2-fold along the horizontal axis. […] The Chp peptide or active fragment thereof and antibiotic dilutions are then combined, so that each column has a constant amount of antibiotic and doubling dilutions of Chp peptide, while each row has a constant amount of Chp peptide and doubling dilutions of antibiotic. Each well thus has a unique combination of Chp peptide and antibiotic. Bacteria are added to the drug combinations at concentrations of 1×10^5 GFU/ml in CAA, for example, with or without human serum or pulmonary surfactant. […] Summation fractional inhibitory concentrations (ΣFICs) are calculated for each drug and the minimum ΣFIC value (ΣFICmin) is used to determine the effect of the Chp peptide/antibiotic combination.
as §1

P. aeruginosa [2] = assay: microbe, parasite or virus in culture; details: Pseudomonas aeruginosa
K. pneumoniae [3] = assay: Checkerboard synergy assay (FICI) against K. pneumoniae; type: cell-based, Klebsiella pneumoniae; details: K. pneumoniae HM-44
[4] = tested on: K. pneumoniae (1_1_5 HM-44); assay: microbe, parasite or virus in culture; type: cell-based, Klebsiella pneumoniae
Enterobacter aerogenes = assay: MIC by broth microdilution against Enterobacter aerogenes; type: cell-based; details: N 1
Protocol: MIC values were determined by broth microdilution against clinical isolates and resistant isolates from a wide range of bacterial species, including isolates from the CDC Antibiotic Resistance bank, including the GN ESKAPE pathogens and E. coli, including carbapenem-resistant Enterobacteriaciae, Acinetobacter, and Pseudomonas.

P. aeruginosa [5] = assay: GN370 time-kill assay, P. aeruginosa; type: cell-based, Pseudomonas aeruginosa; details: for Log10 CFU/mL: P. aeruginosa PA25
Protocol: A kinetic analysis of GN370 bactericidal activity was performed using a time-kill assay format in which CFU reductions of each target organism (P. aeruginosa, K. pneumoniae, A. baumannii, E. coli, and E. cloacae) were measured over 24 hours at 37° C. […] Bactericidal activity was defined as CFU reductions of ≥3-log 10 CFU/mL as compared to the inoculum at the 24-hour time point.

K. pneumoniae [6] = assay: MBEC against K. pneumoniae biofilm; type: cell-based, Klebsiella pneumoniae; details: MDR and XDR K. pneumoniae (11)
E. coli [7] = assay: MIC by broth microdilution against E. coli; type: cell-based, Escherichia coli
[8] = tested on: A. baumannii (ATCC BAA-747); assay: microbe, parasite or virus in culture; type: cell-based, Acinetobacter baumannii
E. coli [9] = assay: GN370 time-kill assay, E. coli; type: cell-based, Escherichia coli; details: for Log10 CFU/mL: E. coli AR-128
Protocol: A kinetic analysis of GN370 bactericidal activity was performed using a time-kill assay format in which CFU reductions of each target organism (P. aeruginosa, K. pneumoniae, A. baumannii, E. coli, and E. cloacae) were measured over 24 hours at 37° C. […] Bactericidal activity was defined as CFU reductions of ≥3-log 10 CFU/mL as compared to the inoculum at the 24-hour time point. See Methods for Determining Bactericidal Activity of Antimicrobial Agents; Approved Guideline, NCCLS document M26-A, CLSI 1999 (Wayne, PA).

[10] = Escherichia coli, AR Bank, N 17
[11] = Escherichia coli, Weill Cornell, N 13
[12] = Escherichia coli, all isolates, N 30

Molecule: C[C@@H](O)[C@H]1C(=O)N2C(C(=O)O)=C(S[C@@H]3CN[C@H](C(=O)N(C)C)C3)[C@H](C)[C@H]12 [meropenem, reference compound]
- FICI of the antibiotic with GN370 (E. cloacae): 0.531
- FICI of the antibiotic with GN370 (E. coli [1]): 0.5
- MIC (P. aeruginosa [2]): 64 µg/mL (≈ 167 µM)
- FICI of the antibiotic with GN370 (K. pneumoniae [3]): 0.5

B1: GN370: lysin-AMP construct, SEQ ID NO: 149: MIDR, FIRL and NPTH moieties N-terminal to GN202 lysin (protein)
chain: MIDRFIRLNPTHGPRRPRRPGRRAPVRTSQRGIDLIKSFEGLRLSAYQDSVGVWTIGYGTTRGVTRYMTITVEQAERMLSNDIQRFEPELDRLAKVPLNQNQWDALMSFVYNLGAANLASSTLLDLLNKGDYQGAADQFPHWVNAGGKRLDGLVKRRAAERALFLEPLS
modifications: GN370 lysin
- MIC ([4]; K. pneumoniae 1_1_5_HM-44, target organism of serial passage study): 2 µg/mL
- change in MIC over 28-day serial passage ([4]; K. pneumoniae (1_1_5 HM-44)): ≤ 2 fold
- change in MIC over 28-day serial passage ([4]; K. pneumoniae, another instance): no change
- MIC Range (Enterobacter aerogenes): 1 µg/mL
- Log10 CFU/mL (P. aeruginosa [5]; 0.2x MIC, 1 hr): 4.5 Log10 CFU/mL
- Log10 CFU/mL (P. aeruginosa [5]; 0.2x MIC, 3 hr): 4.7 Log10 CFU/mL
- Log10 CFU/mL (P. aeruginosa [5]; 0.2x MIC, 24 hr): 9.5 Log10 CFU/mL
- Log10 CFU/mL (P. aeruginosa [5]; 1x MIC, 1 hr): 1.5 Log10 CFU/mL
- Log10 CFU/mL (P. aeruginosa [5]; 1x MIC, 3 hr): 1.5 Log10 CFU/mL
- Log10 CFU/mL (P. aeruginosa [5]; 1x MIC, 24 hr): 1.54 Log10 CFU/mL
- Log10 CFU/mL (P. aeruginosa [5]; 2x MIC, 1 hr): 1.5 Log10 CFU/mL
- Log10 CFU/mL (P. aeruginosa [5]; 2x MIC, 3 hr): 1.5 Log10 CFU/mL
- Log10 CFU/mL (P. aeruginosa [5]; 2x MIC, 24 hr): 1.5 Log10 CFU/mL
- Log10 CFU/mL (P. aeruginosa [5]; 5x MIC, 1 hr): 1.5 Log10 CFU/mL
- Log10 CFU/mL (P. aeruginosa [5]; 5x MIC, 3 hr): 1.5 Log10 CFU/mL
- Log10 CFU/mL (P. aeruginosa [5]; 5x MIC, 24 hr): 1.5 Log10 CFU/mL
- concentration with bactericidal activity (≥3-log 10 CFU/mL reduction at 24 hours) (P. aeruginosa [5]; P. aeruginosa, 37° C.): ≥ 1 ×MIC
- MBEC50 (K. pneumoniae [6]): 1 µg/mL
- MBEC90 (K. pneumoniae [6]): 2 µg/mL
- MBEC Range (K. pneumoniae [6]): 0.5 to 4 µg/mL
- Number of isolates at MBEC 0.5 μg/mL (K. pneumoniae [6]): 3
- Number of isolates at MBEC 1 μg/mL (K. pneumoniae [6]): 3
- Number of isolates at MBEC 2 μg/mL (K. pneumoniae [6]): 4
- Number of isolates at MBEC 4 μg/mL (K. pneumoniae [6]): 1
- MIC (E. coli [7]; E. coli AR-128): (MIC = 0.25 μg/mL)
- MIC (E. coli [7]; E. coli ATCC 25922 (head of Table 19)): 0.5 µg/mL
- MIC90 (E. coli [7]; E. coli clinical and resistant isolates): 1 µg/mL
- MIC50 (E. coli [7]; [10]): 0.5 µg/mL
- MIC90 (E. coli [7]; [10]): 1 µg/mL
- MIC Range (E. coli [7]; [10]): 0.125 to 1 µg/mL
- MIC50 (E. coli [7]; [11]): 0.25 µg/mL
- MIC90 (E. coli [7]; [11]): 0.5 µg/mL
- MIC Range (E. coli [7]; [11]): 0.064 to 4 µg/mL
- MIC50 (E. coli [7]; [12]): 0.25 µg/mL
- MIC90 (E. coli [7]; [12]): 1 µg/mL
- MIC Range (E. coli [7]; [12]): 0.0625 to 4 µg/mL
- change in MIC over 28-day serial passage ([8]; A. baumannii (ATCC BAA-747)): No change
- MIC ([8]; A. baumannii ATCC BAA-747, target organism of serial passage study): 1 µg/mL
- Log10 CFU/mL (E. coli [9]; 0.2x MIC, 24 hr): 8.4 Log10 CFU/mL
- Log10 CFU/mL (E. coli [9]; 1x MIC, 1 hr): 4.4 Log10 CFU/mL
- Log10 CFU/mL (E. coli [9]; 1x MIC, 3 hr): 2.5 Log10 CFU/mL
- Log10 CFU/mL (E. coli [9]; 2x MIC, 1 hr): 4.4 Log10 CFU/mL
- Log10 CFU/mL (E. coli [9]; 2x MIC, 3 hr): 2.2 Log10 CFU/mL
- Log10 CFU/mL (E. coli [9]; 5x MIC, 1 hr): 3.0 Log10 CFU/mL
- concentration with bactericidal activity (≥3-log 10 CFU/mL reduction at 24 hours) (E. coli [9]; E. coli, 37° C.): ≥ 1 ×MIC
